Assay results taken from US20210388031A1 (New Jersey Institute of Technology, published 2021).

Target: SARS-CoV-2 Spike protein on live virus (SARS-CoV-2, UniProt P0DTC2)
Experiment: cell-based or functional assay

## ESLSLSLSLSLSLEGSALEEGQLKTFLDKFMHELEDLLYQLAL [ESBP2]
  IC50 of reduction in live-virus infectivity: < 10 nM
